# From patent publication US20140255408A1 (Janssen / Centocor, published 2014)
# B1: P53A1R5-17v2 (designed binder, not shown: small tags and cut ends)
# chain: LPAPKNLVVSEVTEDSARLSWADPHGFYDSFLIQYQESEKVGEAIVLTVPGSERSYDLTGLKPGTEYTVSIYGVHNVYKDTNMRGLPLSAIFTT
# B2: parental bivalent anti-c-Met antibody M1-K409R (antibody, human IgG1, kappa, V domains shown)
# VH: QVQLVQSGAEVKKPGASVKVSCETSGYTFTSYGISWVRQAPGHGLEWMGWISAYNGYTNYAQKLQGRVTMTTDTSTSTAYMELRSLRSDDTAVYYCARDLRGTNYFDYWGQGTLVTVSS
# VL: DIQMTQSPSSVSASVGDRVTITCRASQGISNWLAWFQHKPGKAPKLLIYAASSLLSGVPSRFSGSGSGTDFTLTISSLQPEDFATYYCQQANSFPITFGQGTRLEIKR
# notes: also called parental bivalent antibody; Parental mAbs
# B3: control monovalent anti-cMet mAb M1-K409R-gp120-F405L (bispecific antibody, human IgG1, kappa)
# heavy 1: not shown
# light 1: DIQMTQSPSSVSASVGDRVTITCRASQGISNWLAWFQHKPGKAPKLLIYAASSLLSGVPSRFSGSGSGTDFTLTISSLQPEDFATYYCQQANSFPITFGQGTRLEIKRTVAAPSVFIFPPSDEQLKSGTASVVCLLNNFYPREAKVQWKVDNALQSGNSQESVTEQDSKDSTYSLSSTLTLSKADYEKHKVYACEVTHQGLSSPVTKSFNRGEC
# heavy 2: not shown
# light 2: EIVLTQSPGTLSLSPGERATFSCRSSHSIRSRRVAWYQHKPGQAPRLVIHGVSNRASGISDRFSGSGSGTDFTLTITRVEPEDFALYYCQVYGASSYTFGQGTKLERKRTVAAPSVFIFPPSDEQLKSGTASVVCLLNNFYPREAKVQWKVDNALQSGNSQESVTEQDSKDSTYSLSSTLTLSKADYEKHKVYACEVTHQGLSSPVTKSFNRGEC
# notes: also called M1-K409R-120-F405L
# B4: control monovalent anti-EGFR mAb E1-F405L-gp120-K409R (bispecific antibody, human IgG1, kappa)
# heavy 1: not shown
# light 1: not shown
# heavy 2: not shown
# light 2: EIVLTQSPGTLSLSPGERATFSCRSSHSIRSRRVAWYQHKPGQAPRLVIHGVSNRASGISDRFSGSGSGTDFTLTITRVEPEDFALYYCQVYGASSYTFGQGTKLERKRTVAAPSVFIFPPSDEQLKSGTASVVCLLNNFYPREAKVQWKVDNALQSGNSQESVTEQDSKDSTYSLSSTLTLSKADYEKHKVYACEVTHQGLSSPVTKSFNRGEC
# notes: also called E1-F405L-120-K409R
# B5: P54CR4-31 (designed binder, not shown: small tags and cut ends)
# chain: LPAPKNLVVSEVTEDSLRLSWTAPDAAFDSFLIQYQESEKVGEAINLTVPGSERSYDLTGLKPGTEYTVSIYGVLGSYVFEHDVMLPLSAEFTT
# Assays:
# [1] = target: T1, recombinant human extracellular domain of EGFR fused to an IgG1 Fc (human, UniProt P00533 25-645); test: affinity printed beside the clone name; SPR on EGFR-Fc taken as the method
# T1 construct: Bought from R&D Systems; The residues are stated for the panning reagent; also called EGFR-Fc; EGF R-Fc; not shown: IgG1 Fc
# [2] = target: T2, human c-Met on cells (human, UniProt P08581 25-1390); test: H441 cell binding assay (assay for c-Met binding)
# T2 construct: c-Met on NCI-H441, NCI-H292, NCI-H1975 and U87-MG cells; in U-2 OS cells a beta-galactosidase fragment was fused to its C-terminus; also called hepatocyte growth factor receptor
# Experimental: Purified FN3 domains (50 μL/well; 0 to 1000 nM) were added to the cells for 1 hour at 4° C. in duplicate plates. […] Cells were incubated with biotinylated-anti HIS antibody (diluted 1:160 in FACS stain buffer, 50 μL/well, R&D Systems, cat #BAM050) for 30 minutes at 4° C. […] Cells were washed three times with FACS stain buffer (150 μL/well) and left in FACS stain buffer (50 μL/well).
# [3] = target: human c-Met extracellular domain (human, UniProt P08581 16-932); test: MSD plate competition assay, competitor biotinylated HGF at 10 nM
# Experimental: MSD Blocker A buffer (Meso Scale Discovery, Gaithersburg, Md.) was added to each well and incubated for 2 hr at room temperature. […] After 2-hour incubation with gentle shaking at room temperature, the plates were washed 3 times with 0.1M HEPES buffer (pH 7.4). MSD Read Buffer T was diluted and dispensed and the signals were analyzed with a SECTOR Imager 6000.
# [4] = target: T2, human c-Met on cells; test: cell-based or functional assay
# [5] = target: T3, human EGFR on cells (human, UniProt P00533 25-1210); test: A431 cell binding assay (assay for EGFR binding)
# T3 construct: Wild type EGFR on A431, NCI-H292, NCI-H322, NCI-H441 and SNU-5 cells; in U-2 OS cells a beta-galactosidase fragment was fused to its C-terminus; also called epidermal growth factor receptor; HER1
# [6] = target: T3, human EGFR on cells; test: cell-based or functional assay
# [7] = target: T1, recombinant human extracellular domain …; test: SPR (ProteOn), EGFR-Fc captured on anti-human Fc IgG, FN3 domain as analyte
# Experimental: Select EGFR-binding FN3 domains were screened to identify those with slow off-rates (koff) in binding to EGFR-Fc on a ProteOn XPR-36 instrument (Bio-Rad) to facilitate selection of high affinity binders. Goat anti-human Fc IgG (R&D systems), at a concentration of 5 μg/mL, was directly immobilized via amine coupling (at pH 5.0) on all 6 ligand channels in horizontal orientation on the chip with a flow rate of 30 μL/min in PBS containing 0.005% Tween-20. The immobilization densities averaged about 1500 Response Units (RU) with less than 5% variation among different channels. EGFR-Fc was captured on the anti-human Fc IgG surface to a density around 600 RU in vertical ligand orientation. All tested FN3 domains were normalized to a concentration of […] and tested for their binding in horizontal orientation. All 6 analyte channels were used for the FN3 domains to maximize screening throughput. The dissociation phase was monitored for 10 minutes at a flow rate of 100 μL/min. The inter-spot binding signals were used as references to monitor non-specific binding between analytes and the immobilized IgG surface, and were subtracted from all binding responses. The processed binding data were locally fit to a 1:1 simple Langmuir binding model to extract the koff for each FN3 domain binding to captured EGFR-Fc.
# Binding affinity of selected EGFR-binding FN3 domains to recombinant EGFR extracellular domain was further characterized by surface Plasmon resonance methods using a Proteon Instrument (BioRad). The assay set-up (chip preparation, EGFR-Fc capture) was similar to that described above for off-rate analysis. Selected EGFR binding FN3 domains were tested at 1 μM concentration in 3-fold dilution series in the horizontal orientation. A buffer sample was also injected to monitor the baseline stability.
# [8] = target: T3, human EGFR on cells; test: A431 cell EGF competition assay, competitor biotinylated EGF; A431 cell EGF competition assay: displaces EGF from EGFR on A431 cells
binder,measurement,setting,value
B1,Kd,[1],1.9 nM
B2,EC50,[2],0.65 nM
same,IC50,[3],14.8 nM
B3,inhibition of ligand-induced c-Met phosphorylation in H292 cells (IC50),[4],4.05 nM
same,EC50,[2],1 nM
B4,EC50,[5],10.1 nM
B5,NCI-H292 Growth IC50,[6],1150 nM
same,NCI-H322 Growth IC50,[6],> 3070 nM
same,Phospho-EGFR IC50 (A431 cells),[6],179 nM
same,Kd,[7],0.383 nM
same,IC50,[8],55 nM
